Assay results from IntAct's records for PubMed 24698088.

B1: Serine protease HTRA2, mitochondrial (Homo sapiens), O43464 (parent)
chain: MAAPRAGRGAGWSLRAWRALGGIRWGRRPRLTPDLRALLTSGTSDPRARVTYGTPSLWARLSVGVTEPRACLTSGTPGPRAQLTAVTPDTRTREASENSGTRSRAWLAVALGAGGAVLLLLWGGGRGPPAVLAAVPSPPPASPRSQYNFIADVVEKTAPAVVYIEILDRHPFLGREVPISNGSGFVVAADGLIVTNAHVVADRRRVRVRLLSGDTYEAVVTAVDPVADIATLRIQTKEPLPTLPLGRSADVRQGEFVVAMGSPFALQNTITSGIVSSAQRPARDLGLPQTNVEYIQTDAAIDFGNSGGPLVNLDGEVIGVNTMKVTAGISFAIPSDRLREFLHRGEKKNSSSGISGSQRRYIGVMMLTLSPSILAELQLREPSFPDVQHGVLIHKVILGSPAHRAGLRPGDVILAIGEQMVQNAEDVYEAVRTQSQLAVQIRRGRETLTLYVTPEVTE
partner: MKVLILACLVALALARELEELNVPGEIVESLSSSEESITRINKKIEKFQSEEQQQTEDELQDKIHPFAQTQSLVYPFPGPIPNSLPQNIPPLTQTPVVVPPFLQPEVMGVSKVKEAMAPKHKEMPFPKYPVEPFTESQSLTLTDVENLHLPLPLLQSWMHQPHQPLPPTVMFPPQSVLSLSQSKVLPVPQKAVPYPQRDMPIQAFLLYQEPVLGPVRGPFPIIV

Variants of: B1
Details: with casb_bovin CSN2, P02666

Row | effect of a mutation on the interaction | Variant
1 | decreasing interaction | G363A
